Results: patent US9201073B2, “Methods and compositions for enhancing proteasome activity” (President and Fellows of Harvard College, priority 2007, dated 2015)

B1: GST-Ubp6: GST fusion of Ubp6 on resin (protein)
chain: MSGETFEFNIRHSGKVYPITLSTDATSADLKSKAEELTQVPSARQKYMVKGGLSGEESIKIYPLIKPGSTVMLLGTPDANLISKPAKKNNFIEDLAPEQQVQQFAQLPVGFKNMGNTCYLNATLQALYRVNDLRDMILNYNPSQGVSNSGAQDEEIHKQIVIEMKRCFENLQNKSFKSVLPIVLLNTLRKCYPQFAERDSQGGFYKQQDAEELFTQLFHSMSIVFGDKFSEDFRIQFKTTIKDTANDNDITVKENESDSKLQCHISGTTNFMRNGLLEGLNEKIEKRSDLTGANSIYSVEKKISRLPKFLTVQYVRFFWKRSTNKKSKILRKVVFPFQLDVADMLTPEYAAEKVKVRDELRKVEKEKNEKEREIKRRKFDPSSSENVMTPREQYETQVALNESEKDQWLEEYKKHFPPNLEKGENPSCVYNLIGVITHQGANSESGHYQAFIRDELDENKWYKFNDDKVSVVEKEKIESLAGGGESDSALILMYKGFGL
modifications: left off: a dimerising Fc or GST
notes: GST fusion of Ubp6 on resin

Assays:
ubp6Δ proteasomes = biological target: T1, ubp6Δ proteasomes (Saccharomyces cerevisiae, UniProt P30656+P43588); assay: In vitro ub-cyclin B deubiquitination/degradation assay with purified yeast proteasomes; assay type: biochemical; details: ubp6Δ proteasomes 135 nM; recombinant Ubp6 or Usp14 species 540 nM, Ubl and Ubl-MBP 1.35 μM, preincubated 5 min; immunoblot
T1 construct: proteasomes purified from ubp6Δ mutants; TEV-ProA (TEV site + protein A), chromosomally integrated (C); made in house
Description: Proteasomes (135 nM) were incubated with ub-cyclin Bin the presence of 1 mM ATP and buffer (50 mM Tris [pH 7.51, 1 mM EDTA, 5 mM MgCl2) for the indicated times. Reactions were terminated by the addition of 5×SDS Laemmli loading buffer (Leggett, et al. (2002). Multiple associated proteins regulate proteasome structure and function. Mol. Cell. 10, 495-507) and boiled for 5 min. Where indicated, recombinant, purified Ubp6 or Usp14 species (540 nM) were preincubated with proteasomes for 5 min prior to the reaction. […] Unless otherwise noted, immunoblots were visualized with anti-cyclin B1 polyclonal antibodies. Polyclonal antibodies recognizing Ubp6, Rpn5, Rpn12, and ubiquitin were used as indicated. Ub-cyclin B was added in molar excess over proteasome, generally on the order of 25-fold, except for FIGS. 4C, 6A and 6B, where the substrate:enzyme ratio was increased by a factor of five.
In the experiments of FIGS. 1, 4 (except FIG. 4C), and 6C, time points were sampled after the preparation of a single reaction mixture. The zero time points therefore reflect a lag which represents the amount of time required to sample the first time point after having prepared the reaction mixture. […] In the experiments of FIGS. 2, 4C, and 6 (except 6C), each time point was carried out as an independent reaction. The zero time points were prepared in the presence of 5×LLB, and accordingly, no processing could occur before time zero.
Ubiquitination of cyclin B was carried out. Briefly, for each 30 μl reaction, Anaphase Promoting Complex (APC) was immunopurified from 600 μl of mitotic Xenopus egg extract with 12 μg of anti-Cdc27 antibodies (AF3.1, Santa Cruz Biotechnologies, Santa Cruz, Calif.) bound to 30 μl of Affiprep Protein A beads (Bio-Rad, Hercules, Calif.). Beads were washed three times with XB high salt (10 mM potassium HEPES pH 7.7, 500 mM KCl, 0.1 mM CaCl2, 1 mM MgCl2), two times with XB (same but with 100 mM KCl), and then three times into the reaction buffer (20 mM Tris pH 7.5, 100 mM KCl, 2.5 mM MgCl2, 2 mM ATP). Ubiquitination reactions contained immunoprecipitated APC on 30 μl of beads, and 30 μl of a mix containing recombinant MBP-human E1 at 200 μg/ml, histidine-tagged Ubc4 at 66 μg/ml, ubiquitin at 1.25 mg/ml, and 50 μg/ml of histidine-tagged cyclin B1/cdc2 complex expressed in baculovirus. Reactions were incubated for 90 minutes at 22° C. with agitation on a shaker at 1,000 RPM. Reaction supernatants were combined with the eluate from the wash of beads with 20 μl of reaction buffer. Reactions were either used fresh after preparation or frozen at −80° C. until use with purified proteasomes.

26S human proteasomes = biological target: T2, 26S human proteasomes (Homo sapiens, UniProt O00487); assay: In vitro Ubn-cyclin B1 degradation assay with human proteasomes; assay type: biochemical; details: 4 nM human proteasomes, about 30 nM ubiquitinated cyclin B, Usp14 60 nM preincubated 5 min
T2 construct: HTBH (C); made in house; complex purified from it
Description: A stable 293 cell line expressing hRpn11-HTBH was used. Human proteasomes were purified as previously described with some modifications (Wang X and Huang L (2007) Identifying dynamic interactors of protein complexes by quantitative mass spectrometry. Mol Cell Proteomics. 2008 January; 7(1):46-57. Epub 2007 Oct. 12.
Assays were performed in proteasome preparation buffer (50 mM Tris [pH 7.5], 5 mM MgCl2, and 5 mM ATP) at ambient temperature for the indicated times. The 26S human proteasomes (4 nM) were incubated with approximately 30 nM of Ub-conjugated cyclin B1 as substrates. Cyclin was ubiquitinated using purified APC ubiquitin ligase. Where indicated, a 15-fold molar access of recombinant Usp14 over proteasomes were preincubated prior to adding Ubn-cyclin B1.
In the study shown in FIG. 14, 4 nM of human proteasomes were incubated with approximately 30 nM of ubiquitinated cyclin B in buffer (50 mM Tris [pH 7.5], 5 mM MgCl2, and 5 mM ATP). Where indicated, 15-fold molar access of Usp14 over proteasome (60 nM) was preincubated for 5 min before initiating degradation reactions. Ubiquitinated cyclin B was added at time zero. SDS-sample buffer was added to stop the reaction at the indicated time. Usp14 CA is a variant of Usp14 with a single amino acid substitution that eliminates the active site nucleophile of the enzyme (a cysteine to alanine replacement). […]

Ub-cyclin B = biological target: T3, Ub-cyclin B (Homo sapiens, UniProt P14635); assay: Ub-cyclin B binding assay (GST pull down); details: GST resin pull down, immunoblot
T3 construct: histidine tag; made in house; host or cells: cyclin B1/cdc2: baculovirus expression; GST-Ubp6: pGEX-4T-1 (bacterial)
T3 sequence (P14635 whole entry, other chains not shown): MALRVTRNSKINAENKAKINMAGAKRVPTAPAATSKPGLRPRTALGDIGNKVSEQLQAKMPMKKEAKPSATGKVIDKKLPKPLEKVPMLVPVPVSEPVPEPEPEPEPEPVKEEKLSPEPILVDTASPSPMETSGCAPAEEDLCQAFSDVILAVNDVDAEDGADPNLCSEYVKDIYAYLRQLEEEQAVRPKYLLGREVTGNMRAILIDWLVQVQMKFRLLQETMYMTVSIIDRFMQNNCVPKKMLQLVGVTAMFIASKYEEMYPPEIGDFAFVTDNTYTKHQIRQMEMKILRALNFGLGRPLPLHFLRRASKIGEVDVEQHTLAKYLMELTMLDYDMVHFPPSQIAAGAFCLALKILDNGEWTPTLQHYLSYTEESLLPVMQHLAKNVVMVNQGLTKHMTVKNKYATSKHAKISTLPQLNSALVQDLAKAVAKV
T3 sequence (P06493 whole entry partner, other chains not shown): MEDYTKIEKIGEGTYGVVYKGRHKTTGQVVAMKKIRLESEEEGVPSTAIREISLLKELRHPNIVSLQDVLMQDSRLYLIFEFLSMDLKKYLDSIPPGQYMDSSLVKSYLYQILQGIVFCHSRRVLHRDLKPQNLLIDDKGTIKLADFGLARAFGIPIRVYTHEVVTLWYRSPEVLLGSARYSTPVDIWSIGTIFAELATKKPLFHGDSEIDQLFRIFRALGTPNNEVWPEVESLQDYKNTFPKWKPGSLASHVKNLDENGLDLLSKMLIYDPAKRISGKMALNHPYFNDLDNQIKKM

Molecule | inhibition of cyclin B degradation (ubp6Δ proteasomes) | suppression of cyclin B degradation by human proteasomes (26S human proteasomes) | binding of Ub-cyclin B conjugates (Ub-cyclin B)
Usp14: human homolog of Ubp6, purified recombinant deubiquitinating enzyme | largely recapitulated the effects of Ubp6 | suppression of cyclin B degradation | 
B1 |  |  | No detectable binding
